The supplement of paper PMC10567573

B1: MLH1 (parent)
chain: YNIATRRKALKNPSEEYGKILEVV
B2: NP_015628.1 (parent)
chain: EQRNSRWNTVLRAVKAKTHHLEP

Variants of: B1
Experiment: protein stability index of a GFP-peptide fusion (GPS, HEK-293T) (PSI 1-6); higher = more stable
Settings: c terminus: a fixed tail appended

Point of comparison: N2Q, protein stability index 2.51. Against it:
- I20E — higher, 3.54
- G18E — higher, 3.29
- L21V — higher, 3.34
- K8C — lower, 1.87
- L21T — higher, 3.91
- K8I — lower, 2
- N2G — higher, 2.7
- T5I — lower, 2.17
- K11L — lower, 2.43
- N12P — higher, 3.11
- V24D — higher, 3.66
- N12G — higher, 2.71
- E22K — lower, 2.18
- A9L — lower, 2.17
- K8E — higher, 3.25
- R7E — higher, 3.66
- K11F — lower, 1.95
- E22D — higher, 3.33
- N12Y — higher, 2.53
- V24K — higher, 3.77
- L21A — higher, 3.69
- E16P — lower, 2.17
- N12R — higher, 3.3
- G18D — higher, 3.15
- S14L — lower, 1.78
- N2Y — lower, 2.43
- I3S — higher, 3
- N12E — higher, 3.35
- A4R — higher, 2.97
- A9Q — higher, 2.55
- Y1I — lower, 2.48
- E22V — higher, 3.63
- P13C — higher, 3.26
- L21Q — higher, 3.8
- E22P — lower, 2.49
- V24A — higher, 3.79
- I3Q — higher, 3.41
- N12S — higher, 2.76
- R6P — higher, 3.15
- E16L — lower, 1.99
- L21S — higher, 3.76
- E15F — lower, 2.29
- I3P — higher, 3.14
- Y17V — higher, 3.16
- E16K — lower, 2.1
- A9E — higher, 2.99
- G18L — lower, 2.15
- E15Y — lower, 2
- N2D — higher, 3.14
- Y1A — higher, 3.18
- S14N — higher, 2.71
- L10F — higher, 3.02
- Y17C — higher, 3.05
- R7G — higher, 2.78
- L10C — higher, 2.84
- P13N — higher, 2.99
- I20C — higher, 3.89
- Y17H — higher, 3.53
- N2H — lower, 2.07
- P13R — higher, 2.78
- E22A — higher, 2.59
- N2V — lower, 1.87
- I20A — higher, 3.46
- Y17E — higher, 4.04
- V23S — higher, 3.66
- Y17M — higher, 3.11
- L10R — higher, 3.13
- V24Q — higher, 3.52
- T5S — higher, 3.03
- K19M — the same, 2.51
- I20T — higher, 3.62
- S14T — higher, 2.85
- E22Y — lower, 2.27
- Y1N — higher, 3.35
- E15K — lower, 2.06
- I20M — higher, 3.13
- E15L — lower, 1.99
- A9V — higher, 2.55
- T5F — lower, 2.27
- L10P — higher, 3.23
- R7K — lower, 2.48
- E22T — lower, 2.19
- L10A — higher, 3.09
- A4E — higher, 3
- E15I — lower, 2.46
- V23T — higher, 2.97
- A4W — lower, 1.83
- A4N — higher, 3.27
- A9D — higher, 3.2
- A9W — higher, 2.75
- N2T — lower, 2.45
- P13F — lower, 1.96
- K11S — lower, 2.48
- K19E — higher, 3.37
- V24P — higher, 4.07
- E15Q — lower, 2.15
- E15C — lower, 2.17
- Y17L — higher, 2.63
- L10G — higher, 2.99
- Y17Q — higher, 3.97
- S14A — higher, 2.98
- E22L — higher, 2.54
- E15P — lower, 2.21
- E16V — lower, 2.49
- T5N — higher, 2.57
- Y17A — higher, 3.52
- E15V — lower, 1.85
- K11M — higher, 2.85
- V23P — higher, 3.41

Variants of: B2
Experiment: as above
Settings: c terminus: native

Point of comparison: E1Y, protein stability index 3.33. Against it:
- E1A — lower, 2.66
- E1C — lower, 2.79
- E1F — lower, 2.52
- E1G — lower, 2.9
- E1H — lower, 2.91
- E1I — lower, 2.79
- E1K — lower, 2.12
- E1L — lower, 2.87
- E1M — lower, 2.95
- E1N — lower, 2.91
- E1P — lower, 2.74
- E1Q — lower, 3.13
- E1R — lower, 3.15
- E1S — lower, 2.4
- E1T — lower, 2.27
- E1V — lower, 2.65
- E1W — lower, 2.94
- Q2A — lower, 2.98
- Q2C — lower, 2.93
- Q2D — higher, 3.43
- Q2E — higher, 3.55
- Q2F — lower, 3.02
- Q2G — lower, 2.74
- Q2H — lower, 3.12
- Q2I — lower, 3.24
- Q2K — lower, 2.71
- Q2L — lower, 2.84
- Q2M — lower, 3.12
- Q2N — lower, 2.88
- Q2P — lower, 3.06
- Q2R — lower, 2.9
- Q2S — lower, 2.87
- Q2T — lower, 2.38
- Q2V — lower, 2.76
- Q2W — lower, 2.78
- Q2Y — lower, 2.97
- R3A — lower, 3.25
- R3C — lower, 3.3
- R3D — higher, 3.97
- R3E — the same, 3.33
- R3F — higher, 3.35
- R3G — higher, 3.58
- R3H — lower, 2.99
- R3I — lower, 3.09
- R3K — lower, 2.79
- R3L — lower, 3.23
- R3M — lower, 3.25
- R3N — lower, 3.07
- R3P — lower, 3.25
- R3Q — lower, 2.71
- R3S — higher, 3.47
- R3T — lower, 2.9
- R3V — lower, 2.99
- R3W — lower, 2.7
- R3Y — higher, 3.7
- N4A — lower, 2.5
